The text below walks through data of the Immune Epitope Database (IEDB).

In one assay the target is HLA-A*30:01. The experiment in a line: IEDB peptide-MHC binding, purified MHC/competitive/fluorescence; filed as Kd, often an IC50 or EC50 that approximates it; ≥ and ≤ were set here for values at or beyond the usual limits of such assays. The following applies: source organism: Vibrio vulnificus YJ016.
Assay [1] deals with HLA-A*02:01. The assay is described as above. The following applies: source organism: Vibrio vulnificus YJ016.
For assay [2], the target named is HLA-A*69:01. The assay is described as above. The following applies: source organism: Vibrio vulnificus YJ016.
The target in assay [3] is HLA-A*26:01. The description is as above. The following applies: source organism: Vibrio vulnificus YJ016.
The next assay concerns the target HLA-B*38:01. As to the kind of experiment: IEDB peptide-MHC binding, purified MHC/direct/fluorescence; filed as Kd, often an IC50 or EC50 that approximates it; ≥ and ≤ were set here for values at or beyond the usual limits of such assays.
In a further assay the target is HLA-B*27:05. The description is as above.
Assay [4] deals with HLA-B*15:01. The assay is described as above. The following applies: source organism: Vibrio vulnificus YJ016.
A further assay deals with HLA-B*39:01. Described as above.
Another assay concerns the target HLA-A*31:01. The description is as above.
A further assay concerns the target HLA-A*01:01. The assay is described as above.
Assay [5] deals with HLA-A*03:01. The description is as above. The following applies: source organism: Vibrio vulnificus YJ016.
A further assay concerns the target HLA-B*07:02. The description is as above. The following applies: source organism: Vibrio vulnificus YJ016.
The next assay has as its target HLA-B*57:01. The description is as above.
The target in another assay is HLA-B*46:01. Described as above.
A further assay concerns the target HLA-B*40:01. The assay is described as above.
The target of assay [6] is HLA-B*15:17. The description is as above. The following applies: source organism: Vibrio vulnificus YJ016.
The target in a further assay is HLA-B*18:01. The assay is described as above.
In the next assay the target is HLA-B*51:01. Described as above. The following applies: source organism: Vibrio vulnificus YJ016.
For a further assay, the target named is HLA-A*11:01. The assay is described as above.
In the next assay the target is HLA-B*48:01. The assay is described as above.
For the next assay, the target named is HLA-B*58:01. The assay is described as above.
The target in assay [7] is HLA-B*15:01. The experiment in a line: IEDB peptide-MHC binding, purified MHC/competitive/fluorescence; filed as Kd, often an IC50 or EC50 that approximates it; ≥ and ≤ were set here for values at or beyond the usual limits of such assays. The following applies: source organism: Vibrio parahaemolyticus RIMD 2210633.
Assay [8] deals with HLA-A*03:01. The description is as above. The following applies: source organism: Vibrio parahaemolyticus RIMD 2210633.
Assay [9] has as its target HLA-B*15:17. The assay is described as above. The following applies: source organism: Vibrio parahaemolyticus RIMD 2210633.
The target in assay [10] is HLA-A*02:01. As to the kind of experiment: IEDB peptide-MHC binding, purified MHC/direct/fluorescence; filed as Kd, often an IC50 or EC50 that approximates it; ≥ and ≤ were set here for values at or beyond the usual limits of such assays. The following applies: source organism: Vibrio parahaemolyticus.
For the next assay, the target named is HLA-B*08:02. The assay is described as above. The following applies: source organism: Vibrio parahaemolyticus AQ3810.
The target of assay [11] is HLA-A*69:01. The description is as above. The following applies: source organism: Vibrio parahaemolyticus.
Assay [12] addresses HLA-A*26:01. The assay is described as above. The following applies: source organism: Vibrio parahaemolyticus AQ3810.
[13] abbreviates: source organism: Vibrio vulnificus YJ016.
Setting [14] is: source organism: Vibrio parahaemolyticus AQ3810.
Setting [15] is: source organism: Vibrio parahaemolyticus.

Usually Kd stands for the concentration at which binding is half-saturated. A low value points to a tighter complex.

With IVAQGIAAL, the Kd with HLA-A*30:01 is at least 20 µM; in the assay with HLA-A*02:01 [1], 0.0181 µM; with HLA-A*69:01 [2], 0.0077 µM; in the assay with HLA-A*26:01 [3] it was at least 20 µM; with HLA-B*38:01 (setting [13]), at least 20 µM; with HLA-B*27:05 (setting [13]) it was at least 20 µM. Also, the Kd in the assay with HLA-B*15:01 [4] was 0.048 µM; with HLA-B*39:01 (setting [13]) it was 0.22 µM; with HLA-A*31:01 (setting [13]), at least 20 µM; with HLA-A*01:01 (setting [13]), at least 20 µM; with HLA-A*03:01 [5], at least 20 µM; with HLA-B*07:02, 0.086 µM. Moreover, the Kd is at least 20 µM with HLA-B*57:01 (setting [13]); 9 µM with HLA-B*46:01 (setting [13]); at least 20 µM in the assay with HLA-B*40:01 (setting [13]); 0.0475 µM with HLA-B*15:17 [6]; at least 20 µM with HLA-B*18:01 (setting [13]); at least 20 µM in the assay with HLA-B*51:01. The Kd with HLA-A*11:01 (setting [13]), with HLA-B*48:01 (setting [13]) and with HLA-B*58:01 (setting [13]) was at least 20 µM throughout.
Turning to RSTLANGWY, the Kd with HLA-B*15:01 [7] was 0.0942 µM; in the assay with HLA-A*03:01 [8], 1.48 µM; with HLA-B*15:17 [9], 0.0012 µM; with HLA-B*38:01 (setting [14]) it was at least 20 µM; with HLA-B*27:05 (setting [15]) it was at least 20 µM; with HLA-A*02:01 [10], at least 20 µM. The Kd with HLA-B*39:01 (setting [14]) is at least 20 µM; in the assay with HLA-B*08:02 it was at least 20 µM; with HLA-A*31:01 (setting [15]), at least 20 µM; with HLA-A*01:01 (setting [15]), 0.274 µM; with HLA-B*57:01 (setting [15]) it was 0.268 µM; in the assay with HLA-B*46:01 (setting [15]), at least 20 µM. Besides, the Kd is at least 20 µM in the assay with HLA-A*69:01 [11]; at least 20 µM in the assay with HLA-B*40:01 (setting [15]); at least 20 µM with HLA-B*18:01 (setting [15]); at least 20 µM with HLA-A*11:01 (setting [15]); at least 20 µM in the assay with HLA-B*48:01 (setting [15]); 0.059 µM with HLA-B*58:01 (setting [15]). Moreover, the Kd with HLA-A*26:01 [12] was found to be 0.59 µM.
